# Results from publication PMC9482650, “Quantitative fragmentomics allow affinity mapping of interactomes” (Nature Communications, 2022).
# Numbering of substitutions follows the chain as printed.
# T1: APBA1_2, Q02410
# T1 sequence (Q02410 742-832, limits assumed, looked up): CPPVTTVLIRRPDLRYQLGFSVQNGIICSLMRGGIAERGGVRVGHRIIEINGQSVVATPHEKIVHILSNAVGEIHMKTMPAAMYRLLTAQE
# T2: APBA2_2, Q99767
# T2 sequence (Q99767 654-744, limits assumed, looked up): T1 sequence (Q02410 742-832, limits assumed, looked up) with R10K, R15K, P59A, H65Q, I66A, A70S, Y84F, A89G
# T3: ARHGAP21, Q5T5U3
# T3 sequence (Q5T5U3 45-169, limits assumed, looked up): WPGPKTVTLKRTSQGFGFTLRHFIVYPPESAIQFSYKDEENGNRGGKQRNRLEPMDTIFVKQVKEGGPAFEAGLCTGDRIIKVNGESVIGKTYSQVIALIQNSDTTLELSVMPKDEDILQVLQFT
# T4: GRIP1_7, Q9Y3R0
# T4 sequence (Q9Y3R0 999-1096, limits assumed, looked up): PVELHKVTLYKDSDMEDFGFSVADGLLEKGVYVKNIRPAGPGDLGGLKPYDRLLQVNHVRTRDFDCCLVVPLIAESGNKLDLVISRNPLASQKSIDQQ
# T5: HTRA4, P83105
# T5 sequence (P83105 378-476, limits assumed, looked up): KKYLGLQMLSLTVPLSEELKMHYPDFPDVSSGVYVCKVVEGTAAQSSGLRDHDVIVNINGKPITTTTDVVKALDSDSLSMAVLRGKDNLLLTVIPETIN
# T6: MPDZ_10, O75970
# T6 sequence (O75970 1624-1722, limits assumed, looked up): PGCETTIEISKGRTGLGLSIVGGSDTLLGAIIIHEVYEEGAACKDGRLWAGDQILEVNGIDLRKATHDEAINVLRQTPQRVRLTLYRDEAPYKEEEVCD
# T7: MPDZ_5, O75970
# T7 sequence (O75970 695-796, limits assumed, looked up): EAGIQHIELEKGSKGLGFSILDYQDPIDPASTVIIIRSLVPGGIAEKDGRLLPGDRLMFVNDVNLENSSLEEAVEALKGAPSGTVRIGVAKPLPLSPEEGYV
# T8: MPP2, Q14168
# T8 sequence (Q14168 180-250, limits assumed, looked up): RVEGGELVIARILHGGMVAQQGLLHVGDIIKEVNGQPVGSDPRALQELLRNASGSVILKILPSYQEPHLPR
# T9: MPP6, Q9NZW5
# T9 sequence (Q9NZW5 125-219, limits assumed, looked up): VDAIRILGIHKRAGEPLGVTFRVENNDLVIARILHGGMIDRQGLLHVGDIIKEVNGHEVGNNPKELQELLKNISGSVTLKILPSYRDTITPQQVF
# T10: MPP7, Q5T2T1
# T10 sequence (Q5T2T1 134-230, limits assumed, looked up): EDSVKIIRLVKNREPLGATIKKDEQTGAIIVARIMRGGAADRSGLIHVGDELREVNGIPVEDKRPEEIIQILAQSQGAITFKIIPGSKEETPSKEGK
# T11: PCLO, Q9Y6V0
# T11 sequence (Q9Y6V0 4491-4600, limits assumed, looked up): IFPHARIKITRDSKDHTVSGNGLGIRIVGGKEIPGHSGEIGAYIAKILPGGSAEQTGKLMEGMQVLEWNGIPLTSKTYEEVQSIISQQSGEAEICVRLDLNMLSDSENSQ
# T12: SNTG2, Q9NY99
# T12 sequence (Q9NY99 68-166, limits assumed, looked up): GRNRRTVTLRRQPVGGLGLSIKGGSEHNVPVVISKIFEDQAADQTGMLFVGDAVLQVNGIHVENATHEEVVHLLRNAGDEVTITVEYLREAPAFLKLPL
# Tests used:
# Test in all cases: holdup assay
# Parameters in all cases: key: below the threshold = too weak to quantify, mostly under pKd 3.1 to 4
# Conditions in all cases: plain residues with an end cap or a label only (N-terminal biotin on a linker: ado-ado)
# APBA1_2, Q02410 = target: T1, APBA1_2, Q02410
# APBA2_2, Q99767 = target: T2, APBA2_2, Q99767
# ARHGAP21, Q5T5U3 = target: T3, ARHGAP21, Q5T5U3
# DLG1_1, Q12959 = target: DLG1_1, Q12959
# DLG1_3, Q12959 = target: DLG1_3, Q12959
# GRIP1_7, Q9Y3R0 = target: T4, GRIP1_7, Q9Y3R0
# GRIP2_3, Q9C0E4 = target: GRIP2_3, Q9C0E4
# GRIP2_4, Q9C0E4 = target: GRIP2_4, Q9C0E4
# GRIP2_5, Q9C0E4 = target: GRIP2_5, Q9C0E4
# HTRA4, P83105 = target: T5, HTRA4, P83105
# IL16_1, Q14005 = target: IL16_1, Q14005
# LAP2, Q96RT1 = target: LAP2, Q96RT1
# LNX1_1, Q8TBB1 = target: LNX1_1, Q8TBB1
# MAGI2_3, Q86UL8 = target: MAGI2_3, Q86UL8
# MAGI2_6, Q86UL8 = target: MAGI2_6, Q86UL8
# MAGI3_2, Q5TCQ9 = target: MAGI3_2, Q5TCQ9
# MPDZ_10, O75970 = target: T6, MPDZ_10, O75970
# MPDZ_5, O75970 = target: T7, MPDZ_5, O75970
# MPP2, Q14168 = target: T8, MPP2, Q14168
# MPP6, Q9NZW5 = target: T9, MPP6, Q9NZW5
# MPP7, Q5T2T1 = target: T10, MPP7, Q5T2T1
# NHERF2_2, Q15599 = target: NHERF2_2, Q15599
# NHERF4_2, Q86UT5 = target: NHERF4_2, Q86UT5
# PCLO, Q9Y6V0 = target: T11, PCLO, Q9Y6V0
# SCRIB_2, Q14160 = target: SCRIB_2, Q14160
# SNTG2, Q9NY99 = target: T12, SNTG2, Q9NY99
# Sequence of SCRIB_2, Q14160 (Q14160 857-960): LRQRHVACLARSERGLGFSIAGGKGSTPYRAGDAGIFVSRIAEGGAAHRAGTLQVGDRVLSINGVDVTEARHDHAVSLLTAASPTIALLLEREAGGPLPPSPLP
# Sequence of MAGI2_3, Q86UL8 (Q86UL8 600-682): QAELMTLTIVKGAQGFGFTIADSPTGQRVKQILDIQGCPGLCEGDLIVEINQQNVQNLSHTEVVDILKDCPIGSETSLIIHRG
# Sequence of NHERF2_2, Q15599 (Q15599 142-238): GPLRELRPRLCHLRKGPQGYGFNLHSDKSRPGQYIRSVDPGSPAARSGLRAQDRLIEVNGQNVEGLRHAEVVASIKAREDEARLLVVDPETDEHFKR
# Sequence of IL16_1, Q14005 (Q14005 210-306): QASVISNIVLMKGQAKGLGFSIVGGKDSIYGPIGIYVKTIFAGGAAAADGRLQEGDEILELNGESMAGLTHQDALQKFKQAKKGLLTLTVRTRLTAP
# Sequence of GRIP2_3, Q9C0E4 (Q9C0E4 238-339): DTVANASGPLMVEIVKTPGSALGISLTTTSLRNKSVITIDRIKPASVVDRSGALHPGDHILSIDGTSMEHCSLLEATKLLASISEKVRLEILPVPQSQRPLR
# Sequence of LAP2, Q96RT1 (Q96RT1 other isoform, or with tags, fused parts or gaps): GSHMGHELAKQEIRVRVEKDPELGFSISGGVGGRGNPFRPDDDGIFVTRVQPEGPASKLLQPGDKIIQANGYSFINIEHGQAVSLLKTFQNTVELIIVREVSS
# Sequence of MAGI2_6, Q86UL8 (Q86UL8 1141-1229): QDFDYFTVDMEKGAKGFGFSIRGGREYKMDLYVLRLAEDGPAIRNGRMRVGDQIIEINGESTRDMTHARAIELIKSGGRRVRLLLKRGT
# Sequence of NHERF4_2, Q86UT5 (Q86UT5 220-308): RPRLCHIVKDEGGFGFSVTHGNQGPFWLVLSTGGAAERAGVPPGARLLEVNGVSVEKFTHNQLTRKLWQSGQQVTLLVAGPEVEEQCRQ
# Sequence of LNX1_1, Q8TBB1 (Q8TBB1 261-371): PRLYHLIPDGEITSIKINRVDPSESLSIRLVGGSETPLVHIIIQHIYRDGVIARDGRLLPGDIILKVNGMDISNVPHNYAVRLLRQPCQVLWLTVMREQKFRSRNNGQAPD
# Sequence of GRIP2_4, Q9C0E4 (Q9C0E4 446-548): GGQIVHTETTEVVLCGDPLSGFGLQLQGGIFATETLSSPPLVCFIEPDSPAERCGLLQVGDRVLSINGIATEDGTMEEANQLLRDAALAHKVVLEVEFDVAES
# Sequence of MAGI3_2, Q5TCQ9 (Q5TCQ9 398-503): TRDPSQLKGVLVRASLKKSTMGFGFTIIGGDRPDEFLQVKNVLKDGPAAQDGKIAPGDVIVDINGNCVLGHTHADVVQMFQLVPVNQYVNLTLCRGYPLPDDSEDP
# Sequence of GRIP2_5, Q9C0E4 (Q9C0E4 544-642): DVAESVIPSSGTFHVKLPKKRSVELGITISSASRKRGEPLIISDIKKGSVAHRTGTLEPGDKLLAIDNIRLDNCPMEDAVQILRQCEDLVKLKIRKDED
Binder,"pKd (APBA1_2, Q02410)","pKd (APBA2_2, Q99767)","pKd (ARHGAP21, Q5T5U3)","pKd (DLG1_1, Q12959)","pKd (DLG1_3, Q12959)","pKd (GRIP1_7, Q9Y3R0)","pKd (GRIP2_3, Q9C0E4)","pKd (GRIP2_4, Q9C0E4)","pKd (GRIP2_5, Q9C0E4)","pKd (HTRA4, P83105)","pKd (IL16_1, Q14005)","pKd (LAP2, Q96RT1)","pKd (LNX1_1, Q8TBB1)","pKd (MAGI2_3, Q86UL8)","pKd (MAGI2_6, Q86UL8)","pKd (MAGI3_2, Q5TCQ9)","pKd (MPDZ_10, O75970)","pKd (MPDZ_5, O75970)","pKd (MPP2, Q14168)","pKd (MPP6, Q9NZW5)",further results
"PMESGICTIV [TTC24, A2A3L6]",4.75,below the threshold,3.96,4.79,3.53,below the threshold,below the threshold,below the threshold,below the threshold,4.77,3.88,below the threshold,4.67,below the threshold,3.86,4.52,3.76,3.56,below the threshold,below the threshold,"pKd (MPP7, Q5T2T1): below the threshold; pKd (NHERF2_2, Q15599): 3.83; pKd (NHERF4_2, Q86UT5): below the threshold; pKd (PCLO, Q9Y6V0): below the threshold; pKd (SCRIB_2, Q14160): below the threshold; pKd (SNTG2, Q9NY99): 4.1"
"GCQGETEDVL [PTH2R, P49190]",3.52,below the threshold,4.18,below the threshold,below the threshold,below the threshold,below the threshold,below the threshold,below the threshold,below the threshold,below the threshold,below the threshold,below the threshold,below the threshold,below the threshold,below the threshold,below the threshold,below the threshold,below the threshold,3.91,"pKd (MPP7, Q5T2T1): below the threshold; pKd (NHERF2_2, Q15599): 4.03; pKd (NHERF4_2, Q86UT5): below the threshold; pKd (PCLO, Q9Y6V0): below the threshold; pKd (SCRIB_2, Q14160): below the threshold; pKd (SNTG2, Q9NY99): below the threshold"
